Data published in patent US20240390423A1 (published 2024).

T1: CTNNB1 S37F peptide on HLA-A*02:01 (human)
T1 peptide: YLDSGIHFGA

T2: CTNNB1 wild type (S37) peptide on HLA-A*02:01 (human)
T2 peptide: YLDSGIHSGA


Key:
[1] = biological target: mutated CTNNB1^S37F peptide presented by HLA-A2 on target cells (T2 cells pulsed with the peptide; HUTU80 tumor cells with endogenous CTNNB1^S37F) (human); assay: cell-based or functional assay
[2] = biological target: T1, CTNNB1 S37F peptide on HLA-A*02:01; assay: CD137 by flow cytometry on GFP+ CD8+ PBMC-derived T cells transduced with pCDH-CTNNB1; T2 cells pulsed with a 10x dilution series of peptide from 1 µg/ml, 24 h; dose-dependent; full-length, on cells
[3] = biological target: T2, CTNNB1 wild type (S37) peptide on …; assay: activation reporter or marker
[4] = biological target: T1, CTNNB1 S37F peptide on HLA-A*02:01; assay: CD69 by flow cytometry on GFP+ JRT (J.RT3-T3.5) cells transduced with pCDH-CTNNB1; T2 cells pulsed with a 10x dilution series of peptide from 1 µg/ml, 16 h; dose-dependent; full-length, on cells

Binder	percentage of CD8+CD137+ cells in gated GFP+ transduced PBMC T cells after 24 h co-culture with peptide-pulsed T2 cells; lowest peptide concentration giving a twofold increase over no peptide [1] [ng/mL]	percentage of CD69+ cells in gated GFP+ JRT cells after 16 h co-culture with peptide-pulsed T2 cells; lowest peptide concentration giving a twofold increase over no peptide [1] [ng/mL]	lowest activating peptide concentration (twofold CD8+CD137+ over no peptide) [2] [ng/mL]	binding result [3]	lowest activating peptide concentration (twofold CD69+ over no peptide) [4] [ng/mL]
inventive TCR specific for the mutated CTNNB1^S37F peptide in the context of HLA-A2, with murine constant regions, expressed from lentiviral vector pCDH-CTNNB1 … (TCR) TCR alpha: AQKVTQAQTEISVVEKEDVTLDCVYETRDTTYYLFWYKQPPSGELVFLIRRNSFDEQNEISGRYSWNFQKSTSSFNFTITASQVVDSAVYFCALSERPGYSTLTFGKGTMLLVSPDIQNPEPAVYQLKDPRSQDSTLCLFTDFDSQINVPKTMESGTFITDKTVLDMKAMDSKSNGAIAWSNQTSFTCQDIFKETNATYPSSDVPCDATLTEKSFETDMNLNFQNLSVMGLRILLLKVAGFNLLMTLRLWSS TCR beta: DAGVIQSPRHEVTEMGQEVTLRCKPISGHDYLFWYRQTMMRGLELLIYFNNNVPIDDSGMPEDRFSAKMPNASFSTLKIQPSEPRDSAVYFCASGTPSTYEQYFGPGTRLTVTEDLRNVTPPKVSLFEPSKAEIANKQKATLVCLARGFFPDHVELSWWVNGKEVHSGVSTDPQAYKESNYSYCLSSRLRVSATFWHNPRNHFRCQVQFHGLSEEDKWPEGSPKPVTQNISAEAWGRADCGITSASYQQGVLSATILYEILLGKATLYAVLVSTLVVMAMVKRKNS	1	0.5			
CTNNB1^S37F peptide specific TCR (the inventive TCR) (TCR, V domains shown) Valpha: AQKVTQAQTEISVVEKEDVTLDCVYETRDTTYYLFWYKQPPSGELVFLIRRNSFDEQNEISGRYSWNFQKSTSSFNFTITASQVVDSAVYFCALSERPGYSTLTFGKGTMLLVSP Vbeta: DAGVIQSPRHEVTEMGQEVTLRCKPISGHDYLFWYRQTMMRGLELLIYFNNNVPIDDSGMPEDRFSAKMPNASFSTLKIQPSEPRDSAVYFCASGTPSTYEQYFGPGTRLTVT			1	no recognition	~0.5
